Experimental data reported in publication PMC5634638.
Where “and” joins values, the source holds several entries; their conditions need not be identical. Identical values can stand only once.

Legend:
[1] = molecular target: Schizosaccharomyces pombe ribosome (S. pombe); experiment: co-sedimentation; ribosome 1 μM and NatA 1.2 μM layered on Buffer G with 30% sucrose, ultracentrifuged; pellet and supernatant on SDS-PAGE
[2] = molecular target: Schizosaccharomyces pombe ribosome (S. pombe); experiment: co-sedimentation; NatA constant at 0.5 μM, ribosome 0.1–11 μM, 30% sucrose cushion; anti-His western blot of Naa15, proportion in the pellet quantified; fit assumes 1:1

| stoichiometry N [1] | Kd [2] [µM] | percent pulldown (highest reached at the ribosome concentrations used) [2] [%] | Substance |
| --- | --- | --- | --- |
| 1.13 and 1.28 | 1.1 |  | NatA (wild type; Naa15-Naa10 complex of Schizosaccharomyces pombe) |
|  |  | < 30 | NatA K9E (Naa15 K27E, K28E, K31E, K605E, K606E, K609E, K610E, K612E, K613E with Naa10) (complex) |
